{"source": "patent US6569841B1", "about": "“Ion exchange tumor targeting (IETT)” (MAP Medical Technologies OY, priority 1998, dated 2003)", "tested_on": "bladder tumor tissue (epidermal growth factor positive superficial transitional cell bladder carcinoma)", "assay": "Radioactive uptake in bladder tumor vs normal bladder tissue after instillation in the bladder of patients (ttn ratio)", "settings": "200 mL of 0.25 μg/mL in saline instilled in the bladder for 30 minutes, washed out, mean values", "description": "Nine patients having epidermal growth factor positive superficial transitional cell bladder carcinoma were studied.\n200 mL of the polymers, of the concentration 0.25 μg/mL in saline, were instilled through an urethral catether and kept in the bladder for 30 minutes and were then carefully washed out with approximately 400 mL saline. The patients were then operated on and samples were taken from normal bladder tissue and bladder tumor tissue, respectively. The samples were weighed and counted in gamma counter and the radioactive uptake was calculated as cpm/g tissue. The target to non-target (ttn) ratio was calculated.", "data": [{"substance": "Tc-99m-lysine dextran", "values": [{"measurement": "radioactive uptake, ttn (target to non-target ratio, tumor vs normal bladder tissue, cpm/g)", "result": "highest target to non-target ratio"}]}]}
